Measured values taken from paper PMC12056017.
Values belong to the binder of their own block, whether it stands above or below them.

How the values were obtained:
[1] = target: PD-1 ligand (PD-L1) fused to an intracellular monomeric green fluorescent protein (mGFP), Q9NZQ7; test: DNA-PAINT super-resolution microscopy with nearest-neighbour analysis (SPINNA); CHO cells co-expressing CD80-mCherry and PD-L1-mEGFP, fixed with 4% PFA; labelled with anti-mCherry and anti-GFP nanobodies; two-round Exchange-PAINT, ~3 nm localization precision; model of monomers, homodimers …; conditions: other: DNA-PAINT super-resolution microscopy with nearest-neighbour analysis (SPINNA)
PD-1 ligand (PD-L1) fused to an intracellular monomeric green fluorescent protein (mGFP), Q9NZQ7, sequence (Q9NZQ7 19-290): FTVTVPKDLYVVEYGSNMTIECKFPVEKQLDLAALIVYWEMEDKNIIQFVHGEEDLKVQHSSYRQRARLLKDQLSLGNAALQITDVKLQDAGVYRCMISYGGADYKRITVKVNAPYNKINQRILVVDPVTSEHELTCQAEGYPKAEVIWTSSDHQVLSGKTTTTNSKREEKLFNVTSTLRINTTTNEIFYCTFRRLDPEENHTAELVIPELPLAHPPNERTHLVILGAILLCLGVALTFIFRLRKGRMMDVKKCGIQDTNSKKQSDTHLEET

[2] = target: T1, CD80 fused to intracellular monomeric Cherry (mCherry), P33681; test: DNA-PAINT super-resolution microscopy with nearest-neighbour analysis (SPINNA); CHO cells co-expressing CD80-mCherry and PD-L1-mEGFP, fixed with 4% PFA; labelled with anti-mCherry and anti-GFP nanobodies; two-round Exchange-PAINT, ~3 nm localization precision; model of monomers, homodimers and heterodimers fitted to nearest-neighbour distances with density masks; 3 cells; conditions: remark: other sources report otherwise
T1 chain: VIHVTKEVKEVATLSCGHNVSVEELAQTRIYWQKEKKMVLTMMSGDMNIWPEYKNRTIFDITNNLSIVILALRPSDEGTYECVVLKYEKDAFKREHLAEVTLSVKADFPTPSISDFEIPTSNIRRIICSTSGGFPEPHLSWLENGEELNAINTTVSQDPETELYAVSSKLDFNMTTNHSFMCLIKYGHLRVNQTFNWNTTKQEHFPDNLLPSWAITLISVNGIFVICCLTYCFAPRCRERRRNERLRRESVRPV

[3] = target: T1, CD80 fused to intracellular monomeric …; test: as above; conditions: remark: other sources report otherwise

B1: CD80 fused to intracellular monomeric Cherry (mCherry) (protein)
chain: T1 chain
percent of all molecules in heterodimers [1]: PD-L1 and CD80 heterodimers (27 ± 5) %

percent of all molecules in homodimers [2]: 11%
percent of all molecules in homodimers [3]: 9%
B2: CD80 fused to intracellular monomeric Cherry (mCherry), P33681 35-288 (ligand)
chain: T1 chain
